Source: patent US20230357735, “PROGRAMMABLE NUCLEASES AND METHODS OF USE” (Mammoth Biosciences, Inc., published 2023)

T1: CasΦ.12 (in cells) (Unknown)
T1 chain: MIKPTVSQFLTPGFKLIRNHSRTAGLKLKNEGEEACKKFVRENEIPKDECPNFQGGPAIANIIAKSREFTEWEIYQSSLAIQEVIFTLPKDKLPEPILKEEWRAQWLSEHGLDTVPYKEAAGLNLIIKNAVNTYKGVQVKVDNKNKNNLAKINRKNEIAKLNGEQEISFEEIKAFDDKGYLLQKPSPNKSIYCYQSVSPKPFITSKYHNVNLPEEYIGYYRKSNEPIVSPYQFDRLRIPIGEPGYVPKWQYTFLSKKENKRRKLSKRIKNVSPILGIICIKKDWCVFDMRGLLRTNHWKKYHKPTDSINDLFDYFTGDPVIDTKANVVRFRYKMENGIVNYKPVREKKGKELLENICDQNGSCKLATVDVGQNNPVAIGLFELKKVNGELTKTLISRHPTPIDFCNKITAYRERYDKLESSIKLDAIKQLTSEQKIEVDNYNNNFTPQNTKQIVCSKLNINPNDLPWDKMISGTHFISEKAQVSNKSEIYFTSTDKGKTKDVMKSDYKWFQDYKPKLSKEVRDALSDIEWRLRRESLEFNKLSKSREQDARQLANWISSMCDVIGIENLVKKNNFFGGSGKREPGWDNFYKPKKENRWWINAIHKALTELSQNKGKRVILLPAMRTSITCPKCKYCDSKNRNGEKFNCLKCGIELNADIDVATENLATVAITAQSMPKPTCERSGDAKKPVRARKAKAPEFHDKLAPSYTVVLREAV


Target: T1, CasΦ.12 (in cells)
Assay: cell_activity; T cells, RNP nucleofection; PAM NTTN
Method: This example illustrates the ability of CasΦ RNP complexes to knockout multiple genes simultaneously. In this study, gRNAs targeting B2M, TRAC and PDCD1 (provided in Table 15) were incubated with CasΦ.12 (SEQ ID NO: 12) for 10 minutes at room temperature to form B2M, TRAC, and PDC1 targeting RNPs, respectively. The B2M targeting RNPs, TRAC targeting RNPs, PDCD1 targeting RNPs and combinations thereof were added to T cells. T cells were resuspended at 5×10⁵ cells/20 μL in Nucleofection P3 solution and an Amaxa 4D 96-well electroporation system with pulse code EH115 was used to nucleofect the cells. Immediately after nucleofection, 85 μl pre-warmed culture medium was added to each well. The cells were then left in the cuvette plate for 10 minutes before transfer to the culture plate. On Day 3, genomic DNA was extracted and sent for NGS sequencing and the % indel was measured with a positive % indel being indicative of % knockout. On Day 5, cells were harvested for flow cytometry and the % knockout was measured with fluorescently labeled antibodies to TRAC and B2M (antibody to PDCD1 unavailable). % indel results are presented in Table 16 and flow cytometry data presented in Table 17.

Binder	activity
B2M gRNA R3132 ; B2M target (ssRNA ; dsDNA) RNA: CUUUCAAGACUAAUAGAUUGCUCCUUACGAGGAGACAGCAAGGACUGGUCUUUCUA DNA 1: AGCAAGGACTGGTCTTTCTA DNA 2: TAGAAAGACCAGTCCTTGCT	85.5 % indel
TRAC gRNA R3042 ; TRAC target (ssRNA ; dsDNA) RNA: CUUUCAAGACUAAUAGAUUGCUCCUUACGAGGAGACGAGUCUCUCAGCUGGUACAC DNA 1: GAGTCTCTCAGCTGGTACAC DNA 2: GTGTACCAGCTGAGAGACTC	77.6 % indel
PDCD1 gRNA R2925 ; PDCD1 target (ssRNA ; dsDNA) RNA: CUUUCAAGACUAAUAGAUUGCUCCUUACGAGGAGACUAGCACCGCCCAGACGACUG DNA 1: TAGCACCGCCCAGACGACTG DNA 2: CAGTCGTCTGGGCGGTGCTA	44.6 % indel
